Experimental findings from the nanobody polyreactivity screen of Harvey et al. (2022) are described below.

The data set is described as follows: yeast display, Sf9 membrane polyspecificity reagent, FACS + sequencing; frameworks hold sequencing errors. Put shortly:
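Galactose induction of a Saccharomyces cerevisiae BJ5465 synthetic nanobody display library ran 36–48 hours. The cells were then stained for 1 hour at 4 °C with 10% biotinylated, detergent-solubilized Sf9 membrane reagent, pulled down on streptavidin microbeads and FACS-sorted into low and high (top ~1%) gates on expression and reagent-binding fluorescence. Labels for polyreactivity follow the gate of origin.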
Take “QVQLVESGGGLVQAGVSLRLSCAASGSIFGWYAMGWYRQAPGKERELVAGITRSGGSTYYADSVKGRFTISRDNAKNNVYLQMDSLNPEDTAVYYCNADLYRKRAWGSRDGSWGQGTQVTVSS”: the “polyreactivity (PSR sort gate)” value is reported as “low polyreactivity”.

On to “QVQLVESGGGLVQAGVSLRLSCAASGSTFIRNAMGWYRKAPGKERELVAAISSGGASTHYADSVKGRFTISRDNAKNTVYLQMKSLKPEDTAVYYCSATHRWYYWPGIPAYDYWGQGTQVTVSS”, for which the “polyreactivity (PSR sort gate)” value is “low polyreactivity”.

Regarding “QVQLVESGGGLVQAGVSLRLSCAASGSTFKQYAMGWYRQAPGKERELVAAIDRGGSTYYADSVKGRFTISRDNANNTVYLQMNSLKPEYTAVYYCAARFVQYRYAFDYWGQGTQVTVSS”, the “polyreactivity (PSR sort gate)” value is “low polyreactivity”.

Take “QVQLVESGGGLVQAGVSLRLSCDASGSTFHYYVMGSSRQAPGKEREFVAAISRSGGNPYYADSVKGRFTISRDNAKNTVYLQMNSLKPDDTAVYYCAAALSAYVKWDYYYCGQGTQVTVSS”: the “polyreactivity (PSR sort gate)” value is given as “low polyreactivity”.

Consider “QVQLVESGGGLVQAGVSLRLSYADSGPIFYKYVMGWYRQAPGKEREMDAAINRSGGTTYYADSVKGRFTISRDKAMNTVYLQMNRLKREDTAVYYCNATLPDYWRYYYYQCGDDYWGQGTQVTVSS”, for which the “polyreactivity (PSR sort gate)” value is “low polyreactivity”.

In the case of “QVQLVESGGGLVQALGSLRLSCVASGSTYDAYDMGWYREAPGKERELVAAITSGGSTYYADSVKGRFTISRDNAKNTVYLQMNSLKPEDTAVYYCAASNQWSSTYLTYGFYYWGQGTQVTVSS”, the “polyreactivity (PSR sort gate)” value is “low polyreactivity”.

For the sequence “QVQLVESGGGLVQARGSLRLSCAASGFIFLYNAMGWYRQAPGKERELLAAITSSGGTTYYADSVKGRFTISRDNAKNTVYLQMNSLKPEDTAVYYCAARYTGRNGGSNTPEYDYWVQGTQVTVSS”, the “polyreactivity (PSR sort gate)” value is listed as “low polyreactivity”.

Take “QVQLVESGGGLVQARGSLRLSCAASGFIFRDNAMGWYRQAPGKERELVAAISKSGGRTYYADSVKGRFTISRDNAKNTVYLQMNSLKPEDTAVYYCAKASRYWSLYYWGQGTQVTVSS”: the “polyreactivity (PSR sort gate)” value is given as “high polyreactivity”.

Take “QVQLVESGGGLVQARGSLRLSCAASGFNFRSYAMASYRQAPGKERELVAAINSRAGNTYYADSVKGRFTISRDNSKNTVYLQMNSLKPEDTAVYYCNAVRHTYGYYSCGQGTQVTVSS”: the “polyreactivity (PSR sort gate)” value was “high polyreactivity”.

Take “QVQLVESGGGLVQARGSLRLSCAASGFTFPQYAMAWYRQAPGKERELVAVISWSGSSTYYADSVKGRFTISRDNAKNTVYLQMNSLKPEDTAVDYCNTRKLYQVDYDYWGQGTQVTVSS”: the “polyreactivity (PSR sort gate)” value is listed as “high polyreactivity”.

“QVQLVESGGGLVQARGSLRLSCAASGITFYFNAMGWYRQAPGKERELVAVITSGGSTNYADSVKGRFTISRDNAKNTVYLQMISLKPEDTAVYYCATDKSYSSWSAQYDYWRQGTQVTVSS”: the “polyreactivity (PSR sort gate)” value is “low polyreactivity”.

For “QVQLVESGGGLVQARGSLRLSCAASGLTFTVDAMGWYRQAPGKEREFVAAISYSAGRTYYADSVKGRFTISRDNAKNTVYLQMNSLKPADTAVYYCAAATYYSIYDYWGQGTQVTVSS”, the “polyreactivity (PSR sort gate)” value is on record as “high polyreactivity”.

Turning to “QVQLVESGGGLVQARGSLRLSCAASGNTFVRNVMGWYRKAPGKERELFAAITWRSVRTDYADSVKGRFTISLDNAKNTVNLQMNSLKPEDTAVYNCAAPSASRHGEYDYWGQGTQVTVSS”, the “polyreactivity (PSR sort gate)” value is reported as “low polyreactivity”.

As for “QVQLVESGGGLVQARGSLRLSCAASGRIFKRYTMGWYTQAPGKKRELVATISSGDSTTYADSVKGRFTISRDNAKNTVYLQMNSLKQEDTAVYYCAAVWPGGSRRGDVVALNYWGQGTQVTVSS”, the “polyreactivity (PSR sort gate)” value is reported as “high polyreactivity”.

For the sequence “QVQLVESGGGLVQARGSLRLSCAASGRILYSYAMGWYRQAPGKERELVASISLSGGRTYADSVKGRFTISRDNAKNTVYLQMNSLKPEDTAVYYCNDRIRTSRYLWPFDYWGQGTQVTVSS”, the “polyreactivity (PSR sort gate)” value is given as “high polyreactivity”.

Consider “QVQLVESGGGLVQARGSLRLSCAASGRNFPSNAMGWYRQAPGKERELVPVITRGSRTKYADCVKGRFTISRDKAMNTVYLQMNSLKPEDSAVYYCAALGGLLYTQGHSEAYWGQGTQGTVSS”, for which the “polyreactivity (PSR sort gate)” value is reported as “low polyreactivity”.

On to “QVQLVESGGGLVQARGSLRLSCAASGRTFKRYAMGWYRQAPGKERELVAAIAWSGTSTYYADSVKGRLTISRDNAKNTVYLQMNSLIPEDTAVYYCNTPHRSSSVRSYGYWGQGTQVSVSS”, for which the “polyreactivity (PSR sort gate)” value is on record as “high polyreactivity”.

Turning to “QVQLVESGGGLVQARGSLRLSCAASGSIFAYNAMGWYRQAPGKERELVARISNRSGRTYYADSVKGRFTISRDNAKNTVYLLMNSLKPEDTAVYYCGVVAGLGTYRRYGYCGQGTQVTVSS”, the “polyreactivity (PSR sort gate)” value was “high polyreactivity”.

In the case of “QVQLVESGGGLVQARGSLRLSCAASGSIFINNTRGWYRQAPGIEREWVAAISITGGSTYYADSVKGRFTISRDNAKNSVYLQMNSLKPEDTAVDYCAADPLQLYDYNYWGQGTQVTVSS”, the “polyreactivity (PSR sort gate)” value is given as “low polyreactivity”.

For the sequence “QVQLVESGGGLVQARGSLRLSCAASGSIFYGNTMGWYRQAPGKESEFVAAISYGGGGTYYADSVKGRFTISRDNAKNTVYLQMNILKPEDTAVYYCATDDPLYQINEQGMDYWGLGTQVTVSS”, the “polyreactivity (PSR sort gate)” value is “low polyreactivity”.

As for “QVQLVESGGGLVQARGSLRLSCAASGSTFHQYVMGWYRQAPGKESELVAAINSSGSSTYYADSVKGRFTISRDNAKNTVDLQMNSLKPEDTAVYYCARDGLRNPGGYGFWGQGTQVTVSS”, the “polyreactivity (PSR sort gate)” value was “low polyreactivity”.

With “QVQLVESGGGLVQARGSLRLSCAASGSTFPYVMGWYRQAPWKERELVAAISQRTGSTYYADSVKGRFTISRDNAKNTVYLQMNSLNPEDTAVYYCAKPGYLRPSRYDYWGQGTQVTVSS”, the “polyreactivity (PSR sort gate)” value is given as “high polyreactivity”.

Regarding “QVQLVESGGGLVQARGSLRLSCAASGSTFRFNAMGRYRQAPGKEREFVAAIRFTGGSTYYADSVKGRFTISRDYAKNTVYLQMNSLKPEDTAVYYCNNADEYSNVEYDYWGQGTQVTVSS”, the “polyreactivity (PSR sort gate)” value is recorded as “low polyreactivity”.

Take “QVQLVESGGGLVQARGSLRLSCAASGSTFYYNTMGWYRQAPGKERELVAAITSSGGRTYYADSVKGRFTISRDNAKNTVYLQMNSLKPEDTAVYYCAAKRVGSTANRRVTKYDWGQGTQVTVSS”: the “polyreactivity (PSR sort gate)” value is recorded as “high polyreactivity”.

On to “QVQLVESGGGLVQARGSLRLSCAASGTIFASNAMGWLRKAPGKVRELVAAINSGGNTYADSVKGRFTITRDNAKNTVYVHMNSLKPEDTAVYYCAVVWNWCSGLSPGYPEFDYWGQGTQVTVSA”, for which the “polyreactivity (PSR sort gate)” value was “low polyreactivity”.

In the case of “QVQLVESGGGLVQARGSLRLSCAASVGTFGSNNMGCYRQAPGKDRELVAAITSGVSTNYADSVKGRFTITRYIAKNTVYLQMNSLKPEDTAVNYSAAGTQAHAYVVRPIEMDYWGQGTQVTVSS”, the “polyreactivity (PSR sort gate)” value is listed as “low polyreactivity”.

In the case of “QVQLVESGGGLVQARGSLRLSCAASVRTICNNAMGWYREAPGKERELVAANTSTASRTYYADSEKGRFTISRDNAKNTVYLQMNSLKPEDTAVYYCNRVSHLDYYWGQGTQVTVSS”, the “polyreactivity (PSR sort gate)” value is “high polyreactivity”.

Turning to “QVQLVESGGGLVQARGSLRLSCASSGITLYFNTMGCYRQPPGKESELVASISGGSSTYYADSVKGRFTISRDNAKNTVYLQMNSLKPEDTAVYYCNAQGSLFRGWFDYDYWGLGTQVTVSS”, the “polyreactivity (PSR sort gate)” value is on record as “low polyreactivity”.

For “QVQLVESGGGLVQARGSLRLSCASSGSTFGGYAMGWYRQAPGKERELVPAITRSGGSTYYADSVKGRFTISRDNGKNTVYLQMNSLKPEDTAVYYCAARVPRGDRPGYHYAYYYWGQGTQVTVSS”, the “polyreactivity (PSR sort gate)” value is “high polyreactivity”.

In the case of “QVQLVESGGGLVQASGSLRLSCAASGFTFSQYDMGWNRQDHGKERELVAAISWNGGSTYYAESVKGRFTISRDNAKNTVYLQMNSLKPDDTAVYYCNRRWPFVRFYYWGQGTQVTVSS”, the “polyreactivity (PSR sort gate)” value was “high polyreactivity”.

With “QVQLVESGGGLVQAVCSLRLSCAASGRTFHGNAMGWYRQAPGKERELVAAISYSGGRTYYADSVKGRFTISRDNAKNTVYLQMNSLKPEDTAVYYCAAWGSSYSFDYWGQGTQVTVSS”, the “polyreactivity (PSR sort gate)” value was “high polyreactivity”.

Regarding “QVQLVESGGGLVQAVGGLRLSCAASGSTFKRNTMGSYRQAPGKEMELVAAISRSGGSTYYADSVKGRFTISRDNAKNTVYLQMNSLKPEDTAVYYCNAYVSSYVGSRSYGLSPYDYWGQGTQVTVSS”, the “polyreactivity (PSR sort gate)” value was “high polyreactivity”.

On to “QVQLVESGGGLVQAVGRLRLSCAASGSNFQYYAMGWYRQAPGKERELVAAISSSGTGTSYADSVKGRFTISRDNAKNTVYLQMNSLKPEDTGVYYCAADYRDYPDSAYYYWGQGTQVTVSS”, for which the “polyreactivity (PSR sort gate)” value is reported as “low polyreactivity”.

For “QVQLVESGGGLVQAVGSLRLSCAASGLIFWRNAMGWYRQAPGKERELVAAITYSGSRTYYADSVKGRFTISRDNAKNTVYLQMNSLKPEDTAVYYCNADYYWYPYEDDDWGQGTQVTVSS”, the “polyreactivity (PSR sort gate)” value is recorded as “low polyreactivity”.

As for “QVQLVESGGGLVQAVGSLRLSCAASGLTFYSNAMGWYRQAPGTERELVATISQDGGRTYADSVKGLFTISRDNAKNTVYFQMNSLKPEDTAVYYCAADYSGNYDFGYWGQGNQVTVSS”, the “polyreactivity (PSR sort gate)” value is recorded as “low polyreactivity”.

For “QVQLVESGGGLVQAVGSLRLSCAASGRTFGNYAMGWYRQAPGKERELVAAISRSGASTYYADSVKGRFTISRDNAKNSVYLQMNSLKPEDTAVYYCAARVLKPFKYGYWGQGTQVTVSS”, the “polyreactivity (PSR sort gate)” value is “high polyreactivity”.

As to “QVQLVESGGGLVQAVGSLRLSCAASGRTFNSYTMGWYRQAPGKERELVAAISSGGSTTYADSVKGRFTISRDNAKNTVYLQMNSLKPEDTAVYYCAAGLVYRGYRRDYWGQGTQVTVSS”, the “polyreactivity (PSR sort gate)” value is reported as “low polyreactivity”.

Consider “QVQLVESGGGLVQAVGSLRLSCAASGRTFYRYAMGWYRQAPGKERELVASITRRGGNTYYADSVKGRFTISRDNAKNTVYLQMNSLKPEDTAVYYCAAQSLHPGNWGQGTQVTVSS”, for which the “polyreactivity (PSR sort gate)” value is “high polyreactivity”.

In the case of “QVQLVESGGGLVQAVGSLRLSCAASGSTLSANAMGWYRQAPGKEWELVAAISWNGGCTYYADSVKGRFTISRDNAKNTVYLQMNSLKPEDTAVYYCAAEYIVTYEYWYFGYDYWGQGTQVTVSS”, the “polyreactivity (PSR sort gate)” value is recorded as “low polyreactivity”.

In the case of “QVQLVESGGGLVQAVGSLRLSCAASGSTLYRYALGWYRQAPGKARELDAAISSSGGSTYYADSVKGRFTISRDNAKNTVYLQMNSLKPEDTEVYYCARVARASGVRWYYYWGQGTQVTVSS”, the “polyreactivity (PSR sort gate)” value was “high polyreactivity”.
